Assay results as given in patent publication US20210261944, “Compositions and methods for ordered and continuous complementary DNA (cDNA) synthesis across non-continuous templates” (The Regents of the University of California, published 2021).

What was measured:
[1] = biological target: T1, BomoC(ed) R2 RT (deltaN274, D996A) (Bombyx mori); test: primer extended across ddA-tailed miRNA pool; full-length cDNA library; Mg2+, 37C; enzyme named as modified R2 RT; conditions: tags: N-terminal MBP, C-terminal 6xHis; partial duplex, +1T 3' overhang
T1 chain: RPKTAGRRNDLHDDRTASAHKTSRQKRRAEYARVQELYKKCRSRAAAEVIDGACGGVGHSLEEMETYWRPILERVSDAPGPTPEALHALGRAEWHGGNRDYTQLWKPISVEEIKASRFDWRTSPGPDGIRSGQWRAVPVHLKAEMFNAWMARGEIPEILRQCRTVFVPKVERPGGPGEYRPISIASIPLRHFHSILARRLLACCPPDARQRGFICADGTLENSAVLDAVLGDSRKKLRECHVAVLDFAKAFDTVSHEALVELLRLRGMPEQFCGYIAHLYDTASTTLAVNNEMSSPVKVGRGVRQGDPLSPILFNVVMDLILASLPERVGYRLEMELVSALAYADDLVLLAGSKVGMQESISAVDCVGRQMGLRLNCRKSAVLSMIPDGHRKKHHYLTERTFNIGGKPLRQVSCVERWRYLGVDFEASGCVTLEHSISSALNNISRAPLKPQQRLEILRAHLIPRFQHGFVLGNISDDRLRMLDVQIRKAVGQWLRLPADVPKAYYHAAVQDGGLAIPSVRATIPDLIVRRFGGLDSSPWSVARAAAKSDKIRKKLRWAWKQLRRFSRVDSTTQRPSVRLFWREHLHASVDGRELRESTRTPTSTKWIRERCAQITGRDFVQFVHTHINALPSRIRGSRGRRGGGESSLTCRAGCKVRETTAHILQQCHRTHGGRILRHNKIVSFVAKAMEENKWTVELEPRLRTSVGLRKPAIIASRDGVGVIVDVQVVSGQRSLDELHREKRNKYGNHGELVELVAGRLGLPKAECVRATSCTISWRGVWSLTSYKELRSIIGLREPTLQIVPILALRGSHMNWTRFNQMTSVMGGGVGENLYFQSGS
Description: (§1) FIG. 15B. Analysis of reaction products by denaturing PAGE and SYBR Gold staining using a template RNA pool of 963 equimolar miRNA sequences (miRXplore). The full-length cDNA library (labeled cDNA+adaptor template) and some cDNA product from copying of the miRNA template only (labeled cDNA) are the predominant products. Excess adaptor primer and adaptor template are also stained. “No enz” is the no enzyme control. Lane+/− indicates addition of RNase A after product denaturation, which removes the non-extended strand of the primer duplex and truncates the ˜70 nt 3′ adaptor template. The library was sequenced with results shown in comparison to a low-cycle-PCR library in FIG. 16B.
(§2) Typical assays for cDNA synthesis by processive use of multiple template molecules (i.e., serial template copying) used a DNA primer that was annealed in full or part to a second strand, usually RNA, to generate a primer 3′ end that was blunt duplex or a short 3′ overhang of defined sequence. Templates included chemically synthesized RNA or DNA oligonucleotides and/or RNAs purified after T7 RNA polymerase transcription; templates were also isolated from biological sources. Reaction conditions were typically 20 mM Tris-HCl pH 7.5, 150 mM KCl, 2 mM MgCl₂, 10% glycerol with incubations at room temperature or 37° C. […]

[2] = biological target: T1, BomoC(ed) R2 RT (deltaN274, D996A); test: used as second (terminal) template in ordered template relay; Mg2+, 37C; conditions: tags: N-terminal MBP, C-terminal 6xHis; partial duplex, 3' C
Description: as §1, §2

[3] = biological target: T1, BomoC(ed) R2 RT (deltaN274, D996A); test: primer for low-PCR cDNA library; Mg2+, 37C; conditions: tags: N-terminal MBP, C-terminal 6xHis; partial duplex

B1: no-PCR adaptor primer partial duplex c5p(FL)/c5pt (DNA:RNA)
DNA: CAAGCAGAAGACGGCATACGAGATGACGAGAGGTGACTGGAGTTCAGACGTGTGCTCTTCCGATCT
RNA: GAUCGGAAGAGCACACGUCUGAACUCCAGU
modifications: 3' C3 spacer on RNA strand
[1]
  binding result: binds

B2: no-PCR adaptor template partial duplex c3t(FL)/c3t_comp (mixed)
DNA: AATGATACGGCGACCACCGAGATCTACACCGCAGACGACACTCTTTCCCTACACGACGCTCTTCCGATCTC
RNA: GUGUAGAUCUCGGUGGUCGCCGUAUCAUU
modifications: 5' amino modifier C6, mixed DNA/ribonucleotides; complement 3' C3 spacer
[2]
  binding result: binds

B3: low-PCR adaptor primer duplex c5p(uni)/c5pt (DNA:RNA)
DNA: GTGACTGGAGTTCAGACGTGTGCTCTTCCGATCC
RNA: GAUCGGAAGAGCACACGUCUGAACUCCAGU
modifications: 3' C3 spacer on RNA strand
[3]
  binding result: binds
